Common to all, as to assay: cell-based or functional assay
In assay [1] the target is HIV-1 Env of pseudovirus CAP45.G3 (clade C) (HIV-1).
Assay [2] deals with HIV-1 Env of pseudovirus 6545.V4.C1 (clade AC) (HIV-1).
Assay [3] addresses HIV-1 Env of pseudovirus T257-31 (clade AG) (HIV-1).
The target in assay [4] is HIV-1 Env of pseudovirus X1632.S2.B10 (clade G) (HIV-1).
Assay [5] concerns the target HIV-1 Env of pseudovirus QH0692.42-N332A (clade B) (HIV-1).
The target of assay [6] is HIV-1 Env of pseudovirus 231965.c01 (clade D) (HIV-1).
The target of assay [7] is HIV-1 Env of pseudovirus Q259.17 (clade A) (HIV-1).
For assay [8], the target named is HIV-1 Env of pseudovirus TRO.11-N332A (clade B) (HIV-1).
The target of assay [9] is HIV-1 Env of pseudovirus 3016.v5.c45 (clade D) (HIV-1).
For assay [10], the target named is HIV-1 Env of pseudovirus MS208.A1 (clade A) (HIV-1).
Assay [11] deals with HIV-1 Env of pseudovirus BJOX009000.02.4 (clade AE) (HIV-1).
In assay [12] the target is HIV-1 Env of pseudovirus BJOX010000.06.2 (clade AE (T/F)) (HIV-1).
For assay [13], the target named is HIV-1 Env of pseudovirus CNE8 (clade AE) (HIV-1).

B1: N49P7 (antibody, V domains shown)
VH: ADLVQSGAVVKKPGDSVRISCEAQGYRFPDYIIHWIRRAPGQGPEWMGWMNPMGGQVNIPWKFQGRVSMTRDTSIETAFLDLRGLKSDDTAVYYCVRDRSNGSGKRFESSNWFLDLWGRGTAVTIQS
VL: ALTQPRSVSASPGQSVTISCTGTHNLVSWCQHQPGRAPKLLIYDFNKRPSGVPDRFSGSGSGGTASLTITGLQDDDDAEYFCWAYEAFGGGTKLTVL
Regarding B1, the “Pseudovirus neutralization IC80 (TZM-bl luciferase)” value (“Pseudovirus neutralization IC80” below) turned out to be 0.112 µg/mL in [1]; 1.76 µg/mL in assay [2]; 0.577 µg/mL in assay [3]; 0.27 µg/mL in assay [4]; 0.35 µg/mL in [5]; 0.196 µg/mL in [6]. The “Pseudovirus neutralization IC80” value in assay [7] stood at 0.163 µg/mL; in assay [8], 0.0622 µg/mL; in [9] it was 0.516 µg/mL; in [10], 0.194 µg/mL; in assay [11], 0.0999 µg/mL; in assay [12], 0.453 µg/mL. Further, the “Pseudovirus neutralization IC80” value in assay [13] amounted to 0.175 µg/mL.

B2: BiS13 (bispecific antibody)
heavy: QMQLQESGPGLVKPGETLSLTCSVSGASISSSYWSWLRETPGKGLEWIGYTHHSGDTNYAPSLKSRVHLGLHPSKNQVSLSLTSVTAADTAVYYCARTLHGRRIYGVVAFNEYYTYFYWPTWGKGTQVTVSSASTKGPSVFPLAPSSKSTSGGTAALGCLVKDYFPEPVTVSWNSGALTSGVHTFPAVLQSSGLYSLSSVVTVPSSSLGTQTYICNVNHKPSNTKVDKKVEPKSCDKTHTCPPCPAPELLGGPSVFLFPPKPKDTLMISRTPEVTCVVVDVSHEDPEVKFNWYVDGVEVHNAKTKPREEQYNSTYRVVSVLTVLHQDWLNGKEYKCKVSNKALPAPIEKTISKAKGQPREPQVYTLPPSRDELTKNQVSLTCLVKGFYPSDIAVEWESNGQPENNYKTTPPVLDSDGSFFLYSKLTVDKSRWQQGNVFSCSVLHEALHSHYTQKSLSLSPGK
light: ALTQPRSVSASPGQSVTISCTGTHNLVSWCQHQPGRAPKLLIYDFNKRPSGVPDRFSGSGSGGTASLTITGLQDDDDAEYFCWAYEAFGGGTKLTVLGQGGGGSGGGGSGGGGSADLVQSGAVVKKPGDSVRISCEAQGYRFPDYIIHWIRRAPGQGPEWMGWMNPMGGQVNIPWKFQGRVSMTRDTSIETAFLDLRGLKSDDTAVYYCVRDRSNGSGKRFESSNWFLDLWGRGTAVTIQSGGGGSGGGGSGGGGSGGGGSGGGGSDISVAPGETVRITCGGESIGSRAVQWYQHRPGQAPRLIIYNNQDRPPGIPERFSGSPDIDFGTTATLTISNVEAGDEATYYCHIWDSRRPTNWELGPGTTLTVLGQPKAAPSVTLFPPSSEELQANKATLVCLISDFYPGAVTVAWKADSSPVKAGVETTTPSKQSNNKYAASSYLSLTPEQWKSHKSYSCQVTHEGSTVEKTVAPTECS
As to B2, the “Pseudovirus neutralization IC80” value in assay [1] is 0.0021 µg/mL; in [2] it was less than 0.0001 µg/mL; in [4], 0.06 µg/mL; in [5] it was 0.0311 µg/mL; in [6], 0.0157 µg/mL; in assay [7], 0.0114 µg/mL. In addition, the “Pseudovirus neutralization IC80” value in assay [8] is 0.0054 µg/mL; in assay [9] it was 0.0156 µg/mL; in assay [10], 0.0998 µg/mL; in assay [11], 0.0096 µg/mL; in assay [12], 0.172 µg/mL; in [13], 0.137 µg/mL.

B3: ePGT121 (antibody, V domains shown)
VH: QMQLQESGPGLVKPGETLSLTCSVSGASISSSYWSWLRETPGKGLEWIGYTHHSGDTNYAPSLKSRVHLGLHPSKNQVSLSLTSVTAADTAVYYCARTLHGRRIYGVVAFNEYYTYFYWPTWGKGTQVTVSS
VL: SDISVAPGETVRITCGGESIGSRAVQWYQHRPGQAPRLIIYNNQDRPPGIPERFSGSPDIDFGTTATLTISNVEAGDEATYYCHIWDSRRPTNWELGPGTTLTVLG
Turning to B3, the “Pseudovirus neutralization IC80” value in assay [1] is 5.78 µg/mL; in assay [2] it was greater than 50 µg/mL; in assay [3], greater than 50 µg/mL; in assay [4], greater than 50 µg/mL; in [5], greater than 50 µg/mL; in [6], greater than 50 µg/mL. For the same molecule, the “Pseudovirus neutralization IC80” value in assay [7] is greater than 50 µg/mL; in assay [8], 1.35 µg/mL; in [9] it was greater than 50 µg/mL; in assay [10] it was greater than 50 µg/mL; in assay [11], 0.0428 µg/mL; in assay [12], greater than 50 µg/mL. Besides, the “Pseudovirus neutralization IC80” value in assay [13] is greater than 50 µg/mL.

The values above are taken from patent US20260242449A1 (INTERNATIONAL AIDS VACCINE INITIATIVE, published 2026).
